Experimental data published in patent US20140213523A1 (TIVORSAN PHARMACEUTICALS, published 2014).

Biological target: the molecule itself
Test: Analytical ultracentrifugation (sedimentation velocity) at three concentrations, 20 mM Tris pH 8, 0.5 M NaCl, 20 °C; self-association of T2-rhBGN (M form to D form)
Description: FIG. 1. Analytical ultracentrifugation of HIC pool purified from CHO clone 57.
T2-rhBGN was purified from conditioned media of CHO clone 57 and 171 and HEK 293 clone 2 by a combination of anion exchange and hydrophobic interaction (HIC). Analytical ultracentrifugation (AUC) of HIC pool purified from CHO Clone 57 resolved into two sedimentation peaks: M with a sedimentation coefficient: s_{20,w}≈2.88 and D with coefficient s_{20,w}≈4.28 (FIG. 1). […] Experiments were performed at 20° C., in a Beckman Optima XL-I analytical ultracentrifuge. Spin Analytical charcoal upon 12 mm double-sector centerpieces were used in an eight-hole AN 50 Ti rotor at 45,000 rpm. Radial absorption scans were measured at λ=280 nm. Sedfit 12.44 was used for data analysis, with a 68% confidence limit (analyticalultracentrifugation.com). Sedimentation coefficients were corrected to standard s_{20,w} conditions using the experimental buffer density and buffer viscosity as calculated with […] (sednterp.unh.edu). Buffer: 20 mM Tris, pH 8, 0.5M NaCl; viscosity=0.01002 Poise; density=1.004989 g/mL. Partial specific volume, v-bar=0.74413 mL/g calculated from amino acid composition with Sednterp.

B1: T2-rhBGN (T2 recombinant human biglycan) (other)
chain: DEEAAGADTAGVLDPDSVTPTYSAMCPFGCHCHLRVVQCSDLGLKSVPKEISPDTTLLDLQNNDISELRKDDFKGLQHLYALVLVNNKISKIHEKAFSPLRKLQKLYISKNHLVEIPPNLPSSLVELRIHDNRIRKVPKGVFSGLRNMNCIEMGGNPLENSGFEPGAFDGLKLNYLRISEAKLTGIPKDLPETLNELHLDHNKIQAIELEDLLRYSKLYRLGLGHNQIRMIENGSLSFLPTLRELHLDNNKLARVPSGLPDLKLLQVVYLHSNNITKVGVNDFCPMGFGVKRAYYNGISLFNNPVPYWEVQPATFRCVTDRLAIQFGNYKK
modifications: N-linked glycans (M and D forms differ in N-glycan profile); no GAG side chains
notes: Purified from conditioned medium of CHO clone 57 by anion exchange and HIC; The pool is a mixture of the M form (generally monomeric) and the D form (generally dimeric); No tags are stated; also called HIC pool; M-rhBGN
B1 was tested, and the Kd was roughly 50 µM.
